In patent publication US20230322922A1:

Experiments:
[1] = biological target: human HER2 expressed on target cells (BT-474, SKOV3, MCF-7, human cardiomyocytes) (human) (UniProt P04626); experiment: cell-based or functional assay
[2] = biological target: cynomolgus monkey CD3 (cynomolgus monkey); experiment: surface plasmon resonance, equilibrium binding analysis
[3] = biological target: cynomolgus monkey HER2 (cynomolgus monkey); experiment: as above
human CD3 (human) = experiment: as above
human HER2 (human) = human HER2 (human) (UniProt P04626); experiment: as above

| Substance | T cell-mediated cytotoxicity against BT474 cells (PBMC 1:1, 48 h, CellTiter-Glo), EC50 [1] [nM] | T cell-mediated cytotoxicity against SKOV3 cells (PBMC 1:1, 48 h, CellTiter-Glo), EC50 [1] [nM] | Kd [2] [nM] | fold reduction of affinity by masking, against AMX-818(PAT) [2] [fold] | Kd [3] [nM] | fold reduction of affinity by masking, against AMX-818(PAT) [3] [fold] | Kd (human CD3 (human)) [nM] | fold reduction of affinity by masking, against AMX-818(PAT) (human CD3 (human)) [fold] | Kd (human HER2 (human)) [nM] | Jurkat NFAT-Luciferase reporter T cell activation in the presence of BT-474 cells, EC50 [1] [nM] | cytotoxicity against BT-474 tumor cells with PBMC effectors (1:1), IC50 [1] [nM] |
| --- | --- | --- | --- | --- | --- | --- | --- | --- | --- | --- | --- |
| AMX-818 (bispecific antibody) | 49.4 | 44.5 | 140 | 6 | 20.1 | 10 | 160 | 6 | 24.9 | – | – |
| AMX-818(PAT) (bispecific antibody) | 0.0048 | 0.0034 | 21.5 | – | 2 | – | 26.3 | – | – | 0.07 | 0.005 to 0.011 |
